Like-named read-outs stand apart in the source and are kept apart here. Square brackets hold non-standard residues; d marks the D form. Ends that are not written are not given here. Lys(Me3) = C[N+](C)(C)CCCC[C@H](N)C(=O)O
What was measured:
[1] = molecular target: T1, Eaf3 chromo barrel domain (1–113 aa) (Saccharomyces cerevisiae, UniProt Q12432); assay: 15N-1H HSQC NMR titration of 15N-labeled Eaf3; assay type: binding; settings: for affinity for Eaf3 (in words): HSQC titration, pH 6.7; for affinity relative to other methylated ligands (in words): from KD comparison
T1 sequence (Q12432 1-113): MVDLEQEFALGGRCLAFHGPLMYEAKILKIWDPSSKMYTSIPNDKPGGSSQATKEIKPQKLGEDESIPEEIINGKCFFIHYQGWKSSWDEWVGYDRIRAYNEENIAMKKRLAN

[2] = Protein stability, precipitation or aggregation of Eaf3 constructs; assay type: physicochemical; settings: purified proteins expressed in Escherichia coli or NMR samples
[3] = system: Eaf3 chromo barrel domain and linked H3KC36me2; assay: 15N-1H HSQC spectra of fused Eaf3-H3C36; assay type: binding, Saccharomyces cerevisiae; settings: 15N-1H HSQC before and after dimethylation, 300K, pH 6.7
[4] = Gel filtration chromatography of extended Eaf3; assay type: physicochemical; settings: change in gel filtration chromatography retention time (data not shown)
[5] = molecular target: T2, Eaf3 chromo barrel domain (1–113 aa) (S. cerevisiae, UniProt Q12432 1-113); assay: NMR titration
T2 sequence (looked up): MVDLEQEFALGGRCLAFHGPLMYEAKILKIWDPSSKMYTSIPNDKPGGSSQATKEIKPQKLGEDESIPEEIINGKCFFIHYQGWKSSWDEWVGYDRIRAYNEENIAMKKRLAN

[6] = read-out: dissociation constant (KD), 15N-1H HSQC titration, 15N-labeled Eaf3 (1–113 aa), 300K, 20 mM NaPi pH 6.7, 50 mM NaCl, 1 mM EDTA, 2 mM DTT, range of estimates from amide peaks of two to four selected amino acids, curve fitting

CN(C)C(N)=NCCC[C@H](N)C(=O)O [asymmetrically dimethylated arginine, reference compound]
affinity for Eaf3 (in words) ([1]; 300K): does not have any significant affinity

C[N+](C)(C)CCCC[C@H](N)C(=O)O [trimethyllysine, trimethylated lysine, reference compound]
Kd [1]: 8.6 to 19.2 mM | affinity relative to other methylated ligands (in words) [1]: significantly lower than that measured with trimethylated peptides under similar conditions

ATGGVK36me3KPHRYR [H3K36me3]
affinity for Eaf3 (in words) ([1]; 300K): very low affinity (KD in the millimolar range) | affinity for Eaf3 (in words) ([1]; 300K, listed as methylated H3K36 peptide): millimolar-range affinity | affinity relative to other methylated ligands (in words) [1]: comparable to that determined for the Eaf3-H3K4me3 complex | Kd [1, 6]: 1.8 to 3.4 mM

ATGGVKC36me3KPHRYR (ATGGVCKPHRYR; not fully specified (residue 6)) [H3KC36me3]
affinity relative to other methylated ligands (in words) [1]: only slightly lower than that of the H3K36me3 peptide

KRHRK20me3VLRDN [H4K20me3]
Kd [1, 6]: 3 to 4 mM

B1: Y23A: single-point mutation in Eaf3-H3C36 (protein, UniProt Q12432 1-401, looked up, variant Y23A)
Chromatin …: MVDLEQEFALGGRCLAFHGPLMAEAKILKIWDPSSKMYTSIPNDKPGGSSQATKEIKPQKLGEDESIPEEIINGKCFFIHYQGWKSSWDEWVGYDRIRAYNEENIAMKKRLANEAKEAKKSLLEQQKKKKLSTSLGGPSNGGKRKGDSRSNASISKSTSQSFLTSSVSGRKSGRSSANSLHPGSSLRSSSDQNGNDDRRRSSSLSPNMLHHIAGYPTPKISLQIPIKLKSVLVDDWEYVTKDKKICRLPADVTVEMVLNKYEHEVSQELESPGSQSQLSEYCAGLKLYFDKCLGNMLLYRLERLQYDELLKKSSKDQKPLVPIRIYGAIHLLRLISVLPELISSTTMDLQSCQLLIKQTEDFLVWLLMHVDEYFNDKDPNRSDDALYVNTSSQYEGVALGM
modifications: fused to histone H3 peptide
protein stability / precipitation / aggregation (in words) [2]: unstable and highly prone to precipitation

B2: Y81A: single-point mutation in Eaf3-H3C36 (protein, UniProt Q12432 1-401, looked up, variant Y81A)
Chromatin …: MVDLEQEFALGGRCLAFHGPLMYEAKILKIWDPSSKMYTSIPNDKPGGSSQATKEIKPQKLGEDESIPEEIINGKCFFIHAQGWKSSWDEWVGYDRIRAYNEENIAMKKRLANEAKEAKKSLLEQQKKKKLSTSLGGPSNGGKRKGDSRSNASISKSTSQSFLTSSVSGRKSGRSSANSLHPGSSLRSSSDQNGNDDRRRSSSLSPNMLHHIAGYPTPKISLQIPIKLKSVLVDDWEYVTKDKKICRLPADVTVEMVLNKYEHEVSQELESPGSQSQLSEYCAGLKLYFDKCLGNMLLYRLERLQYDELLKKSSKDQKPLVPIRIYGAIHLLRLISVLPELISSTTMDLQSCQLLIKQTEDFLVWLLMHVDEYFNDKDPNRSDDALYVNTSSQYEGVALGM
modifications: fused to histone H3 peptide
protein stability / precipitation / aggregation (in words) [2]: unstable and highly prone to precipitation

B3: W88A: single-point mutation in Eaf3-H3C36 (protein, UniProt Q12432 1-401, looked up, variant W88A)
Chromatin …: MVDLEQEFALGGRCLAFHGPLMYEAKILKIWDPSSKMYTSIPNDKPGGSSQATKEIKPQKLGEDESIPEEIINGKCFFIHYQGWKSSADEWVGYDRIRAYNEENIAMKKRLANEAKEAKKSLLEQQKKKKLSTSLGGPSNGGKRKGDSRSNASISKSTSQSFLTSSVSGRKSGRSSANSLHPGSSLRSSSDQNGNDDRRRSSSLSPNMLHHIAGYPTPKISLQIPIKLKSVLVDDWEYVTKDKKICRLPADVTVEMVLNKYEHEVSQELESPGSQSQLSEYCAGLKLYFDKCLGNMLLYRLERLQYDELLKKSSKDQKPLVPIRIYGAIHLLRLISVLPELISSTTMDLQSCQLLIKQTEDFLVWLLMHVDEYFNDKDPNRSDDALYVNTSSQYEGVALGM
modifications: fused to histone H3 peptide
spectral change upon dimethylation of fused H3C36 [3]: Very little spectral change

B4: W84A: single-point mutation in Eaf3-H3C36 (protein, UniProt Q12432 1-401, looked up, variant W84A)
Chromatin …: MVDLEQEFALGGRCLAFHGPLMYEAKILKIWDPSSKMYTSIPNDKPGGSSQATKEIKPQKLGEDESIPEEIINGKCFFIHYQGAKSSWDEWVGYDRIRAYNEENIAMKKRLANEAKEAKKSLLEQQKKKKLSTSLGGPSNGGKRKGDSRSNASISKSTSQSFLTSSVSGRKSGRSSANSLHPGSSLRSSSDQNGNDDRRRSSSLSPNMLHHIAGYPTPKISLQIPIKLKSVLVDDWEYVTKDKKICRLPADVTVEMVLNKYEHEVSQELESPGSQSQLSEYCAGLKLYFDKCLGNMLLYRLERLQYDELLKKSSKDQKPLVPIRIYGAIHLLRLISVLPELISSTTMDLQSCQLLIKQTEDFLVWLLMHVDEYFNDKDPNRSDDALYVNTSSQYEGVALGM
modifications: fused to histone H3 peptide
protein stability / precipitation / aggregation (in words) [2]: prone to precipitation | spectral change upon dimethylation of fused H3C36 [3]: Very little spectral change

B5: Eaf3 (1–126 aa): Eaf3 extended by 13 residues (protein)
chain: MVDLEQEFALGGRCLAFHGPLMYEAKILKIWDPSSKMYTSIPNDKPGGSSQATKEIKPQKLGEDESIPEEIINGKCFFIHYQGWKSSWDEWVGYDRIRAYNEENIAMKKRLANEAKEAKKSLLEQQ
oligomerization (in words) [4]: apparent homodimerization

B6: Eaf3: N-terminal 1–113 aa of budding yeast Eaf3 (protein)
chain: MVDLEQEFALGGRCLAFHGPLMYEAKILKIWDPSSKMYTSIPNDKPGGSSQATKEIKPQKLGEDESIPEEIINGKCFFIHYQGWKSSWDEWVGYDRIRAYNEENIAMKKRLAN
protein stability / precipitation / aggregation (in words) [2]: has a tendency to aggregate

B7: H3K36me3 peptide (31–42 aa) (peptide)
peptide: ATGGV[Lys(Me3)]KPHRYR
Kd [5]: 1.8 to 3.4 mM

B8: H3KC36me3 peptide (31–42 aa) (peptide)
peptide: ATGGVCKPHRYR
modifications: not fully specified (residue 6)
Kd [5]: 5 to 7 mM

B9: H3K4me3 peptide (1–10 aa) (peptide)
peptide: ART[Lys(Me3)]QTARKS
Kd [5]: 1 to 3 mM

B10: H4K20me3 peptide (16–25 aa) (peptide)
peptide: KRHR[Lys(Me3)]VLRDN
Kd [5]: 3 to 4 mM
